# Results from the DeepSol protein solubility set.
# Experiment: soluble on expression in E. coli; label from the status in PepcDB or PDB records
row,Sequence,soluble on expression in E. coli
1,MTASERVVVKELSSSLLDMKFMLKKKKQIETKAAKKKEAKLDQLITEKEAEATCSTEILKSSEPKLEICYDYAKLENLKFGRLSFGGFNKEVELLMEYYEKLQNGMLSDSDDDGMDVDDEEMAKSLGGQKLAALDKKSQSKRERRQQNERNEETTGGRRFNIKDIRKRFAADDVADAPERKFMKPAEDC,not soluble
2,MYILVTTGSMGFKRLFDAIVKSVIGKRIVIQTGKIDPTIYRNQNVTTFSFDPDLEKWIANASLVITHQGKTAMEAVVMYRKPVIMVYNNDWKSATTLSDAKKYAEILGATFLSDPITWSDYNVLLEAIENANEPNVFDTGTPNLVKHVLSEL,soluble
3,MGSDKIHHHHHHMALIHEIITSENIKGFYNAKNENVENTLGEKAFPPKQQLGLKLSFIKGAAGKPVTLKAAAFDTKVPLRDRMAVELIDEEMPFFKEAMLVKEADRQQLNMLAQTKNNELIDTILASIYNDQATLIAGAKARLEAMRMEVLSKGKIHIQSNGVMKDIDYGLAEDQTTKPDAKWDSAGTATPLKDIEKAIEKMAERGFVPEAIIMNSKTFSLIKNAESTLDVVKPMAPNGAAVTKRDLNTYLEDELQIKVILKDGMFVGDDGESRKYFPDGFATLVPNGNLGYTVFGTTPEQSDLLGGEATDANVSIVETGIAITTTKTTDPVNVQTKVSMIALPSFERLEEVHIINGLQDA,not soluble
4,MHTKPPIERIMYIELRTSLELFRSDLVDLEALANAAKEALEQLPYIPKEPCGKGEDDPLSGPESALRTGRLCGLVCCTATAAEGALSTCSKLIDWAYENEPEGVDDAVLVDDIDDDDDDDDDGSNGANGGGGANGSGNGSNGSGNGSPPDGGVEGAAPSLDADELAQARPSRGGIALDLAQCATTTDRPVA,not soluble
5,MAFANFRRILRLSTFEKRKSREYEHVRRDLDPNEVWEIVGELGDGAFGKVYKAKNKETGALAAAKVIETKSEEELEDYIVEIEILATCDHPYIVKLLGAYYHDGKLWIMIEFCPGGAVDAIMLELDRGLTEPQIQVVCRQMLEALNFLHSKRIIHRDLKAGNVLMTLEGDIRLADFGVSAKNLKTLQKRDSFIGTPYWMAPEVVMCETMKDTPYDYKADIWSLGITLIEMAQIEPPHHELNPMRVLLKIAKSDPPTLLTPSKWSVEFRDFLKIALDKNPETRPSAAQLLEHPFVSSITSNKALRELVAEAKAEVMEEIEDGRDEGEEEDAVDAASTLENHTQNSSEVSPPSLNADKPLEESPSTPLAPSQSQDSVNEPCSQPSGDRSLQTTSPPVVAPGNENGLAVPVPLRKSRPVSMDARIQVAQEKQVAEQGGDLSPAANRSQKASQSRPNSSALETLGGEKLANGSLEPPAQAAPGPSKRDSDCSSLCTSESMDYGTNLSTDLSLNKEMGSLSIKDPKLYKKTLKRTRKFVVDGVEVSITTSKIISEDEKKDEEMRFLRRQELRELRLLQKEEHRNQTQLSNKHELQLEQMHKRFEQEINAKKKFFDTELENLERQQKQQVEKMEQDHAVRRREEARRIRLEQDRDYTRFQEQLKLMKKEVKNEVEKLPRQQRKESMKQKMEEHTQKKQLLDRDFVAKQKEDLELAMKRLTTDNRREICDKERECLMKKQELLRDREAALWEMEEHQLQERHQLVKQQLKDQYFLQRHELLRKHEKEREQMQRYNQRMIEQLKVRQQQEKARLPKIQRSEGKTRMAMYKKSLHINGGGSAAEQREKIKQFSQQEEKRQKSERLQQQQKHENQMRDMLAQCESNMSELQQLQNEKCHLLVEHETQKLKALDESHNQNLKEWRDKLRPRKKALEEDLNQKKREQEMFFKLSEEAECPNPSTPSKAAKFFPYSSADAS,soluble
6,MTHQIVTTQYGKVKGTTENGVHKWKGIPYAKPPVGQWRFKAPEPPEVWEDVLDATAYGPICPQPSDLLSLSYTELPRQSEDCLYVNVFAPDTPSQNLPVMVWIHGGAFYLGAGSEPLYDGSKLAAQGEVIVVTLNYRLGPFGFLHLSSFDEAYSDNLGLLDQAAALKWVRENISAFGGDPDNVTVFGESAGGMSIAALLAMPAAKGLFQKAIMESGASRTMTKEQAASTAAAFLQVLGINESQLDRLHTVAAEDLLKAADQLRIAEKENIFQLFFQPALDPKTLPEEPEKSIAEGAASGIPLLIGTTRDEGYLFFTPDSDVHSQETLDAALEYLLGKPLAEKAADLYPRSLESQIHMMTDLLFWRPAVAYASAQSHYAPVWMYRFDWHPEKPPYNKAFHALELPFVFGNLDGLERMAKAEITDEVKQLSHTIQSAWITFAKTGNPSTEAVNWPAYHEETRETVILDSEITIENDPESEKRQKLFPSKGE,soluble
